According to IntAct's records for PubMed 27065194:

B1: Protein BTG4 (Mus musculus), O70552 (parent)
chain: MRDEIATAVFFVTRLVKKHEKLSTQQIETFALKLMTILFEKYRGHWHPDCPSKGQAFRCIRINNNENKDPVLERACAESNVNFFHLGLPKEMTIWVDPYEVCCRYGEKKHPFTIASFKGRWENWELAQHVSCAVNRATGDCSSGTSSDEESCSREAQIIPKVNNPKSVYQVENFKQSLQPWFCLPRRKHLADGRGFLPGAACHPVPKSSKWCRPASRRVDRYHWVNAQLFSGQTAPGEPGEEALSSLKQK

Variants of: B1
Settings: with cnot7_mouse Cnot7, Q60809
Sequence of cnot7_mouse Cnot7, Q60809 (Q60809 whole entry): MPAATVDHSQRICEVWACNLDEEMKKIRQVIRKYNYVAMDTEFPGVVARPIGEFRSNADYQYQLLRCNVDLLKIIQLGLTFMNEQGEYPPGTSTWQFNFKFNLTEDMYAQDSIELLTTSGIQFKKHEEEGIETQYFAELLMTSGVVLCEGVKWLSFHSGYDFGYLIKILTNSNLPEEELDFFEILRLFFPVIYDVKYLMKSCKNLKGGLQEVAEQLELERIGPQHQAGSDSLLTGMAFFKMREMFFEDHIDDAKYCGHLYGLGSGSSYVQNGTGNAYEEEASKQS

| effect of a mutation on the interaction | Variant |
| --- | --- |
| disrupting interaction strength | MRDEIATAVFFVTRLVKKHEKLSTQQIETFALKLMTILFEKYRGHWHPDCPSKGQAFRCIRINNNENKDPVLERACAESNVNFFHLGLPKEMTIWVDPYEVCCRYGAKKHPFTIASFKGRWENWELAQHVSCAVNRATGDCSSGTSSDEESCSREAQIIPKVNNPKSVYQVENFKQSLQPWFCLPRRKHLADGRGFLPGAACHPVPKSSKWCRPASRRVDRYHWVNAQLFSGQTAPGEPGEEALSSLKQK [E107A] |
| disrupting interaction strength | MRDEIATAVFFVTRLVKKHEKLSTQQIETFALKLMTILFEKYRGHWHPDCPSKGQAFRCIRINNNENKAPVLERACAESNVNFFHLGLPKEMTIWVDPYEVCCRYGEKKHPFTIASFKGRWENWELAQHVSCAVNRATGDCSSGTSSDEESCSREAQIIPKVNNPKSVYQVENFKQSLQPWFCLPRRKHLADGRGFLPGAACHPVPKSSKWCRPASRRVDRYHWVNAQLFSGQTAPGEPGEEALSSLKQK [D69A] |
| disrupting interaction strength | MRDEIATAVFFVTRLVKKHEKLSTQQIETFALKLMTILFEKYRGHWHPDCPSKGQAFRCIRINNNENKDPVLERACAESNVNFFHLGLPKEMTIAVDPYEVCCRYGEKKHPFTIASFKGRWENWELAQHVSCAVNRATGDCSSGTSSDEESCSREAQIIPKVNNPKSVYQVENFKQSLQPWFCLPRRKHLADGRGFLPGAACHPVPKSSKWCRPASRRVDRYHWVNAQLFSGQTAPGEPGEEALSSLKQK [W95A] |

Further lines, the variant ahead of its results:

| Variant | effect of a mutation on the interaction |
| --- | --- |
| MRDEIATAVFFVTRLVKKHEKLSTQQIETFALKLMTILFEKYRGAWHPDCPSKGQAFRCIRINNNENKDPVLERACAESNVNFFHLGLPKEMTIWVDPYEVCCRYGEKKHPFTIASFKGRWENWELAQHVSCAVNRATGDCSSGTSSDEESCSREAQIIPKVNNPKSVYQVENFKQSLQPWFCLPRRKHLADGRGFLPGAACHPVPKSSKWCRPASRRVDRYHWVNAQLFSGQTAPGEPGEEALSSLKQK [H45A] | disrupting interaction strength |
| MRDEIATAVFFVTRLVKKHEKLSTQQIETFALKLMTILFEKYRGHAHPDCPSKGQAFRCIRINNNENKDPVLERACAESNVNFFHLGLPKEMTIWVDPYEVCCRYGEKKHPFTIASFKGRWENWELAQHVSCAVNRATGDCSSGTSSDEESCSREAQIIPKVNNPKSVYQVENFKQSLQPWFCLPRRKHLADGRGFLPGAACHPVPKSSKWCRPASRRVDRYHWVNAQLFSGQTAPGEPGEEALSSLKQK [W46A] | disrupting interaction strength |
| MRDEIATAVFFVTRLVKKHEKLSTQQIETFALKLMTILFEKYRGHWHPDCPSKGQAFACIRINNNENKDPVLERACAESNVNFFHLGLPKEMTIWVDPYEVCCRYGEKKHPFTIASFKGRWENWELAQHVSCAVNRATGDCSSGTSSDEESCSREAQIIPKVNNPKSVYQVENFKQSLQPWFCLPRRKHLADGRGFLPGAACHPVPKSSKWCRPASRRVDRYHWVNAQLFSGQTAPGEPGEEALSSLKQK [R58A] | disrupting interaction strength |
| MRDEIATAVFFVTRLVKKHEKLSTQQIETFALKLMTILFEKYRGHWHPDCPSKGQAFRAIRINNNENKDPVLERACAESNVNFFHLGLPKEMTIWVDPYEVCCRYGEKKHPFTIASFKGRWENWELAQHVSCAVNRATGDCSSGTSSDEESCSREAQIIPKVNNPKSVYQVENFKQSLQPWFCLPRRKHLADGRGFLPGAACHPVPKSSKWCRPASRRVDRYHWVNAQLFSGQTAPGEPGEEALSSLKQK [C59A] | decreasing interaction strength |

Variants of: B1
Settings: with cnot8_mouse Cnot8, Q9D8X5
Sequence of cnot8_mouse Cnot8, Q9D8X5 (Q9D8X5 whole entry): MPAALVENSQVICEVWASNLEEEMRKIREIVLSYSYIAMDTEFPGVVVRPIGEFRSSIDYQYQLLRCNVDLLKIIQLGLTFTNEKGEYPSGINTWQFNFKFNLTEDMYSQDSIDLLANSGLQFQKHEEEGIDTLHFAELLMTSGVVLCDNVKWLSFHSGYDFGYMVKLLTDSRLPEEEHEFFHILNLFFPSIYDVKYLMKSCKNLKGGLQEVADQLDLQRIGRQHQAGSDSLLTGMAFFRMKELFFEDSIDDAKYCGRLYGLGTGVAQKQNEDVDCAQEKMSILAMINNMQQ

| effect of a mutation on the interaction | Variant |
| --- | --- |
| disrupting interaction strength | MRDEIATAVFFVTRLVKKHEKLSTQQIETFALKLMTILFEKYRGHWHPDCPSKGQAFRCIRINNNENKDPVLERACAESNVNFFHLGLPKEMTIAVDPYEVCCRYGEKKHPFTIASFKGRWENWELAQHVSCAVNRATGDCSSGTSSDEESCSREAQIIPKVNNPKSVYQVENFKQSLQPWFCLPRRKHLADGRGFLPGAACHPVPKSSKWCRPASRRVDRYHWVNAQLFSGQTAPGEPGEEALSSLKQK [W95A] |
